These results are taken from US20180147257A1 (Stanford University, published 2018).

For this assay, the target named is T1, PDL1 displayed on yeast cells (UniProt Q9NZQ7 19-238, limits assumed).
T1 construct: Control for the yeast display staining; also called closest CD277 structural homologue
Briefly: FACS staining of yeast displaying PDL1 with purified LTβR-IgG1 fusion protein.

T1 sequence (Q9NZQ7 19-238 limits assumed): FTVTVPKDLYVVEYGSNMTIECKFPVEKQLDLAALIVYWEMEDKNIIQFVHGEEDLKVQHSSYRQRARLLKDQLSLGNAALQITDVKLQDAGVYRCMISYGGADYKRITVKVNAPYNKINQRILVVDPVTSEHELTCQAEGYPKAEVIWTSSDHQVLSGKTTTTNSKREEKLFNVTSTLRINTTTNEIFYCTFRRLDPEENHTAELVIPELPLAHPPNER

B1: LTβR-IgG1 fusion protein (Fc fusion, UniProt P36941 31-227, looked up)
chain: QAVPPYASENQTCRDQEKEYYEPQHRICCSRCPPGTYVSAKCSRIRDTVCATCAENSYNEHWNYLTICQLCRPCDPVMGLEEIAPCTSKRKTQCRCQPGMFCAAWALECTHCELLSDCPPGTEAELKDEVGKGNNHCVPCKAGHFQNTSSPSARCQPHTRCENQGLVEAAPGTAQSDTTCKNPLEPLPPEMSGTMLM
notes: Purified fusion protein; also called LTBR-IgG1 fusion protein; not shown: IgG1 part of the fusion
Consider B1, for which the binding result is “no binding”.
